The test deals with Taxol-stabilized microtubules polymerized from bovine brain tubulin, Q6B856. Description: fluorescence microscopy of microtubule decoration by GFP-tagged protein. Particulars: chain shown with the change; 100 nM GFP-tagged Ndc80c Bonsai protein; rhodamine-labeled taxol-stabilized microtubules; parent: est. 12000; read off a plot.

Experimental findings from paper PMC12407084 are described below.

Sequence of Taxol-stabilized microtubules polymerized from bovine brain tubulin, Q6B856 (chain, as listed by the source, chain 1 of 2): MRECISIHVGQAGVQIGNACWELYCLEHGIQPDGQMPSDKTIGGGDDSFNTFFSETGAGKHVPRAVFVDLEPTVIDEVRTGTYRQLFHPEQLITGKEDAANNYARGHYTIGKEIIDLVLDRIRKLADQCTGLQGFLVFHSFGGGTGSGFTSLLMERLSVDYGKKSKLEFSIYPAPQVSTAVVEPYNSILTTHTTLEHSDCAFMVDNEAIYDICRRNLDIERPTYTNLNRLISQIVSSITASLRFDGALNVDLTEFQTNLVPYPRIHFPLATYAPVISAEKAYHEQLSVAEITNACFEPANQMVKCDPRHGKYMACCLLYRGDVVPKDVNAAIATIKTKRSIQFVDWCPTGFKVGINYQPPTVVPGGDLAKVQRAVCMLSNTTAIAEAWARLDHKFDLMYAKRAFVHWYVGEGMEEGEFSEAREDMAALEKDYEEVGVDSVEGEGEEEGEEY
Sequence of Taxol-stabilized microtubules polymerized from bovine brain tubulin, Q6B856 (Q6B856 whole entry, chain 2 of 2): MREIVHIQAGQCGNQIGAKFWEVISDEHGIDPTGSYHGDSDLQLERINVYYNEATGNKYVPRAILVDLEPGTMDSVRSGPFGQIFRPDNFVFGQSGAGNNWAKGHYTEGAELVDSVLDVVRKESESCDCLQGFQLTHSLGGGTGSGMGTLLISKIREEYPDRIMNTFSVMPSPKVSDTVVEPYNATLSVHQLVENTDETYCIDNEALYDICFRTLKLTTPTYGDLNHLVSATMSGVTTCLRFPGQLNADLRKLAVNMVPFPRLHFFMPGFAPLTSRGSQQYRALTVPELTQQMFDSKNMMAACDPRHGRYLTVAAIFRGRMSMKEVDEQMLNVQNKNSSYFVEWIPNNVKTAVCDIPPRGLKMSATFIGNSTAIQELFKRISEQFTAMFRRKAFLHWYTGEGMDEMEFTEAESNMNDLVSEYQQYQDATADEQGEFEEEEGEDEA

B1: Human Ndc80c Bonsai Ndc80-GFP (WT) Nuf2:K33D; Nuf2:K41D; Nuf2:K115D (protein)
chain 1: MKRSSVSSGGAGRLSMQELRSQDVNKQGLYTPQTKEKPTFGKLSINKPTSERKVSLFGKRTSGHGSRNSQLGIFSSSEKIKDPRPLNDKAFIQQCIRQLCEFLTENGYAHNVSMKSLQAPSVKDFLKIFTFLYGFLCPSYELPDTKFEEEVPRIFKDLGYPFALSKSSMYTVGAPHTWPHIVAALVWLIDCIKIHTAMKESSPLFDDGQPWGEETEDGIMHNKLFLDYTIKCYESFMSGADSFDEMNAELQSKLKDLFNVDAFKLESLEAKNRALNEQIARLEQERSTANKANAERLKRLQKSADLYKDRLGLEIRKIYGEKLQFIFTNIDPKNPESPFMFSLHLNEARDYEVSDSAPHLEGLAEFQENVRKTNNFSAFLANVRKAFTATVYN
chain 2: METLSFPRYNVAEIVIHIRNKILTGADGKNLTDNDLYPNPDPEVLHMIYMRALQIVYGIRLEHFYMMPVNSEVMYPHLMEGFLPFSNLVTHLDSFLPICRVNDFETADILCPKADRTSRFLSGIINFIHFREACRETYMEFLWQYKSSADKMQQLNAAHQEALMKLERLEKEVDEDTTVTIPSAVYVAQLYHQVSKIEWDYECEPGMVKGIHHGPSVAQPIHLDSTQLSRKFISDYLWSLVDTEW
For the molecule B1, the response was 160 a.u.

B2: Human Ndc80c Bonsai Ndc80-GFP (WT) Hec1:K166D (protein)
chain 1: MKRSSVSSGGAGRLSMQELRSQDVNKQGLYTPQTKEKPTFGKLSINKPTSERKVSLFGKRTSGHGSRNSQLGIFSSSEKIKDPRPLNDKAFIQQCIRQLCEFLTENGYAHNVSMKSLQAPSVKDFLKIFTFLYGFLCPSYELPDTKFEEEVPRIFKDLGYPFALSDSSMYTVGAPHTWPHIVAALVWLIDCIKIHTAMKESSPLFDDGQPWGEETEDGIMHNKLFLDYTIKCYESFMSGADSFDEMNAELQSKLKDLFNVDAFKLESLEAKNRALNEQIARLEQERSTANKANAERLKRLQKSADLYKDRLGLEIRKIYGEKLQFIFTNIDPKNPESPFMFSLHLNEARDYEVSDSAPHLEGLAEFQENVRKTNNFSAFLANVRKAFTATVYN
chain 2: METLSFPRYNVAEIVIHIRNKILTGADGKNLTKNDLYPNPKPEVLHMIYMRALQIVYGIRLEHFYMMPVNSEVMYPHLMEGFLPFSNLVTHLDSFLPICRVNDFETADILCPKAKRTSRFLSGIINFIHFREACRETYMEFLWQYKSSADKMQQLNAAHQEALMKLERLEKEVDEDTTVTIPSAVYVAQLYHQVSKIEWDYECEPGMVKGIHHGPSVAQPIHLDSTQLSRKFISDYLWSLVDTEW
Take B2: the response is 400 a.u.
